The text below walks through data of paper PMC8053115.

The target in the data set is T1, NP C-terminal tail peptide (Influenza A virus A/HK/483/97 (H5N1), UniProt Q9PX50).
T1 chain: DNAEEYDN
Nature of the data set: MST.

As for UUUUUUUUU (XNA, 2'-O-methyl) [Cy5 9-mer poly-uridine RNA], the binding result is on record as “no binding”.
